To fix the notation:
T1: DEAD-box helicase DbpA (Escherichia coli, UniProt P21693 1-457)
T1 construct: DbpA, DEAD-box RNA helicase, Escherichia coli; monomer of 49 kDa as printed; source: E. coli BL21(DE3), purified (ammonium sulfate precipitation, heparin column)
T1 sequence (looked up): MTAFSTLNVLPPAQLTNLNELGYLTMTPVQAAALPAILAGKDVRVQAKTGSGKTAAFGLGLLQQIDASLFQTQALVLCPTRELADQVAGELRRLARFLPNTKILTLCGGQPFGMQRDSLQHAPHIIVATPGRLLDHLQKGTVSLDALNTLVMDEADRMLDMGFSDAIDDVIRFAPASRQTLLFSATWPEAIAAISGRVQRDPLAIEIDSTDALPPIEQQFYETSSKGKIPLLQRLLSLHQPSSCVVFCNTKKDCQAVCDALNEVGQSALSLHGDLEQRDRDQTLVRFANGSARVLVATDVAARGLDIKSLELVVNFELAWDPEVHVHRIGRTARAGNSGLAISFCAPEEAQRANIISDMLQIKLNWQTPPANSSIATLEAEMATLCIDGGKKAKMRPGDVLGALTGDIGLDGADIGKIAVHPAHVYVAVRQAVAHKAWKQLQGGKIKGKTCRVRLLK

T2: DEAD-box helicase RhlE (Escherichia coli, UniProt P25888 1-454)
T2 construct: RhlE, DEAD-box RNA helicase, Escherichia coli; source: E. coli BL21(DE3), purified (ammonium sulfate precipitation, heparin column)
T2 sequence (looked up): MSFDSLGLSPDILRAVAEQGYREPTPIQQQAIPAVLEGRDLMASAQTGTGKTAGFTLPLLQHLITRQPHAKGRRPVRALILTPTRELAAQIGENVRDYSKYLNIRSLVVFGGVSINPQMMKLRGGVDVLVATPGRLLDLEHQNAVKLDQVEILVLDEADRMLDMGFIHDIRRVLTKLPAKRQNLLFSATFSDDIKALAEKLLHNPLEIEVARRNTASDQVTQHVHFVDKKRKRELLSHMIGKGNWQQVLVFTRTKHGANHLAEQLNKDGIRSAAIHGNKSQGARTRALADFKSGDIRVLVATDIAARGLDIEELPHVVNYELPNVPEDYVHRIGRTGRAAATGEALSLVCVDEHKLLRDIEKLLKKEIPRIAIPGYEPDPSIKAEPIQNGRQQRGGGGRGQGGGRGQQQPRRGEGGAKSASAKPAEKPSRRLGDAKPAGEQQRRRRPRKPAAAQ

B1: DEAD-box helicase SrmB (enzyme, Escherichia coli, UniProt P21507 1-444, looked up)
chain: MTVTTFSELELDESLLEALQDKGFTRPTAIQAAAIPPALDGRDVLGSAPTGTGKTAAYLLPALQHLLDFPRKKSGPPRILILTPTRELAMQVSDHARELAKHTHLDIATITGGVAYMNHAEVFSENQDIVVATTGRLLQYIKEENFDCRAVETLILDEADRMLDMGFAQDIEHIAGETRWRKQTLLFSATLEGDAIQDFAERLLEDPVEVSANPSTRERKKIHQWYYRADDLEHKTALLVHLLKQPEATRSIVFVRKRERVHELANWLREAGINNCYLEGEMVQGKRNEAIKRLTEGRVNVLVATDVAARGIDIPDVSHVFNFDMPRSGDTYLHRIGRTARAGRKGTAISLVEAHDHLLLGKVGRYIEEPIKARVIDELRPKTRAPSEKQTGKPSKKVLAKRAEKKKAKEKEKPRVKKRHRDTKNIGKRRKPSGTGVPPQTTEE
notes: SrmB, DEAD-box RNA helicase, Escherichia coli; monomer of 50 kDa as printed; only residues 219-388 (C-terminal RecA-like domain) are resolved in the crystal; source: E. coli BL21(DE3), purified (ammonium sulfate precipitation, heparin column)
B2: CsdAΔ (truncated CsdA, residues 1 to 443) (domain or fragment, Escherichia coli, UniProt P0A9P6 1-443, looked up)
chain: MAEFETTFADLGLKAPILEALNDLGYEKPSPIQAECIPHLLNGRDVLGMAQTGSGKTAAFSLPLLQNLDPELKAPQILVLAPTRELAVQVAEAMTDFSKHMRGVNVVALYGGQRYDVQLRALRQGPQIVVGTPGRLLDHLKRGTLDLSKLSGLVLDEADEMLRMGFIEDVETIMAQIPEGHQTALFSATMPEAIRRITRRFMKEPQEVRIQSSVTTRPDISQSYWTVWGMRKNEALVRFLEAEDFDAAIIFVRTKNATLEVAEALERNGYNSAALNGDMNQALREQTLERLKDGRLDILIATDVAARGLDVERISLVVNYDIPMDSESYVHRIGRTGRAGRAGRALLFVENRERRLLRNIERTMKLTIPEVELPNAELLGKRRLEKFAAKVQQQLESSDLDQYRALLSKIQPTAEGEELDLETLAAALLKMAQGERTLIVPPD
notes: CsdA (DeaD), DEAD-box RNA helicase, Escherichia coli, residues 1 to 443, without the C-terminal extension; Vector pROEX-HT, gift of M. Dreyfus and T. Bizebard; also called CsdA (DeaD); source: E. coli BL21(DE3), purified (HisTrap FF)
B3: DEAD-box helicase RhlB (enzyme, Escherichia coli, UniProt P0A8J8 1-421, looked up)
chain: MSKTHLTEQKFSDFALHPKVVEALEKKGFHNCTPIQALALPLTLAGRDVAGQAQTGTGKTMAFLTSTFHYLLSHPAIADRKVNQPRALIMAPTRELAVQIHADAEPLAEATGLKLGLAYGGDGYDKQLKVLESGVDILIGTTGRLIDYAKQNHINLGAIQVVVLDEADRMYDLGFIKDIRWLFRRMPPANQRLNMLFSATLSYRVRELAFEQMNNAEYIEVEPEQKTGHRIKEELFYPSNEEKMRLLQTLIEEEWPDRAIIFANTKHRCEEIWGHLAADGHRVGLLTGDVAQKKRLRILDEFTRGDLDILVATDVAARGLHIPAVTHVFNYDLPDDCEDYVHRIGRTGRAGASGHSISLACEEYALNLPAIETYIGHSIPVSKYNPDALMTDLPKPLRLTRPRTGNGPRRTGAPRNRRRSG
notes: RhlB, DEAD-box RNA helicase, Escherichia coli; monomer of 47 kDa as printed; The printed mass of 47 kDa fits the whole protein; 'full-length RhlB' is said only of the crystallisation trials
B4: Regulator of ribonuclease activity A (RraA) (natural protein, Escherichia coli)
chain: MKYDTSELCDIYQEDVNVVEPLFSNFGGRASFGGQIITVKCFEDNGLLYDLLEQNGRGRVLVVDGGGSVRRALVDAELARLAVQNEWEGLVIYGAVRQVDDLEELDIGIQAMAAIPVGAAGEGIGESDVRVNFGGVTFFSGDHLYADNTGIILSEDPLDIE
notes: RraA, regulator of ribonuclease activity A, Escherichia coli; ring-shaped homotrimer (52 kDa); residues 2-159 modelled in the crystal; Trimer at 150 mM NaCl; about 100 kDa (hexamer) at 300 mM NaCl

Series [1] addresses B4. As to the kind of experiment: AUC; sedimentation velocity, absorbance at 280 nm, 20 °C; 150 mM NaCl, 50 mM HEPES pH 7.5, 10% glycerol; mixtures at 1:1 helicase:RraA trimer, about 10 μM. Particulars: both partners purified.
Series [2] addresses B4. Put plainly: SAXS; SrmB and RraA mixed at a 1:3 molar ratio; 150 mM NaCl, 20 mM HEPES pH 7.0, 5% glycerol, 2 mM DTT; 15 °C; 5 to 55 μM; ab initio envelope. The note with it: both partners purified.
Series [3] concerns the molecule itself. As to the kind of experiment: AUC; sedimentation velocity, 20 °C; 300 mM NaCl, 50 mM HEPES pH 7.5, 10% glycerol, 2 mM tris(2-carboxyethyl)phosphine; experiments with CsdAΔ; about 10 μM.
Series [4] concerns the target T1, DEAD-box helicase DbpA. Put plainly: AUC; sedimentation velocity, absorbance at 280 nm, 20 °C; 150 mM NaCl, 50 mM HEPES pH 7.5, 10% glycerol; mixtures at 1:1 helicase:RraA trimer, about 10 μM. The note with it: both partners purified.
In series [5] the target is B1. The description is as above. Particulars: both partners purified.
Series [6] deals with the molecule itself. The description is as above.
For series [7], the target named is B2. Put plainly: native gel or EMSA; 5% native polyacrylamide gel, Tris glycine running buffer with 1 mM DTT, 4 °C; helicase 10 μM and RraA 30 μM (2.5 and 7.5 μM for the mutants of Figure 3); bands of the complex cut out and analysed by SDS-PAGE. The note with it: both partners purified. (In general: In EMSA bound probe runs differently from free probe, usually more slowly.)

Series [8] addresses T2, DEAD-box helicase RhlE. The description is as above. Particulars: both partners purified.
Series [9] concerns the molecule itself. As to the kind of experiment: crystal structure; RraA and RhlB(398-421) mixed at 1:20; 74.8 μM RraA, 1.48 mM peptide, 423 mM NaCl, 99 mM (NH4)2SO4; hanging drop, 16 °C; 100 mM sodium citrate pH 5.4, 32% methylpentanediol, 200 mM ammonium acetate; 2.8 Å.

Broadly, the stoichiometry N is the number of molecules, sites or subunits per partner or assembly. As usually defined, the Kd is the constant that tells how readily two partners part at equilibrium.

As to B1, the “stoichiometry N” value in [1] is 1 helicase monomer per RraA trimer; in series [2], 1 SrmB per RraA trimer.
B2: the “stoichiometry N” value in series [3] came out at 2.
As for B3, the “stoichiometry N” value in series [1] is 1 helicase monomer per RraA trimer.
In the case of B4, the binding result in series [4], in [7] and in series [8] was “binds” throughout. In addition, the Kd in series [5] was less than 10 µM. Also, the results for the “stoichiometry N” value in [6] and in series [9] were 3 and 6, respectively.
